# According to patent US20160030510:
# Target: human tau protein, P10636
# Sequence (P10636 whole entry, looked up): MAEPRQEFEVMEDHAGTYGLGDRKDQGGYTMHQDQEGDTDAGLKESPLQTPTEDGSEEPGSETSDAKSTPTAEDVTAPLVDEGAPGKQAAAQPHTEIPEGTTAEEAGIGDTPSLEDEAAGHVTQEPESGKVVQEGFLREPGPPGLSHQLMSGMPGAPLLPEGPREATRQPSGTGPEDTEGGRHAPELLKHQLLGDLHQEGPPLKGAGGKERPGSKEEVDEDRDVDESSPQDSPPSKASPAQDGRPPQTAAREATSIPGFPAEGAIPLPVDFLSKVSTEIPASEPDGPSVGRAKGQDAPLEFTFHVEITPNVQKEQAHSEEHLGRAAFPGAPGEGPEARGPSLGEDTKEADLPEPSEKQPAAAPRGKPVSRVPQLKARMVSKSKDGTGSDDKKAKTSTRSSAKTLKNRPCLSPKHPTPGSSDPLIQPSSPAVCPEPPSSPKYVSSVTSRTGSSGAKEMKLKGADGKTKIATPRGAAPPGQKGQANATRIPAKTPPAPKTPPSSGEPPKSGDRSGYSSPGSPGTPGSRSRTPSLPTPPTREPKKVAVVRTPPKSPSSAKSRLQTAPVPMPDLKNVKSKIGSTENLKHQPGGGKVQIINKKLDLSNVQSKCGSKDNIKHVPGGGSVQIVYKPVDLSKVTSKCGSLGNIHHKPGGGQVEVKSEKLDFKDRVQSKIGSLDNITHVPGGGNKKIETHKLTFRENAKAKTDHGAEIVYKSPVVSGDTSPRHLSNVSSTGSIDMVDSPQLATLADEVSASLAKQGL
protein,measurement,value
human MARK4 (microtubule affinity regulating kinase 4) (protein) MSSRTVLAPGNDRNSDTHGTLGSGRSSDKGPSWSSRSLGARCRNSIASCPEEQPHVGNYRLLRTIGKGNFAKVKLARHILTGREVAIKIIDKTQLNPSSLQKLFREVRIMKGLNHPNIVKLFEVIETEKTLYLVMEYASAGEVFDYLVSHGRMKEKEARAKFRQIVSAVHYCHQKNIVHRDLKAENLLLDAEANIKIADFGFSNEFTLGSKLDTFCGSPPYAAPELFQGKKYDGPEVDIWSLGVILYTLVSGSLPFDGHNLKELRERVLRGKYRVPFYMSTDCESILRRFLVLNPAKRCTLEQIMKDKWINIGYEGEELKPYTEPEEDFGDTKRIEVMVGMGYTREEIKESLTSQKYNEVTATYLLLGRKTEEGGDRGAPGLALARVRAPSDTTNGTSSSKGTSHSKGQRSSSSTYHRQRRHSDFCGPSPAPLHPKRSPTSTGEAELKEERLPGRKASCSTAGSGSRGLPPSSPMVSSAHNPNKAEIPERRKDSTSTPNNLPPSMMTRRNTYVCTERPGAERPSLLPNGKENSSGTPRVPPASPSSHSLAPPSGERSRLARGSTIRSTFHGGQVRDRRAGGGGGGGVQNGPPASPTLAHEAAPLPAGRPRPTTNLFTKLTSKLTRRVADEPERIGGPEVTSCHLPWDQTETAPRLLRFPWSVKLTSSRPPEALMAALRQATAAARCRCRQPQPFLLACLHGGAGGPEPLSHFEVEVCQLPRPGLRGVLFRRVAGTALAFRTLVTRISNDLEL,"in vitro kinase assay: phospho-tau, Western blot",the levels of total tau and phospho-tau generated by MARK4 were detected by Western blot analysis
